Assay results: patent publication US11541126B1, “Anti-ASGR1 antibody TLR8 agonist comprising conjugates and uses thereof” (Silverback Therapeutics, Inc., priority 2020, dated 2023)

T1: HepG2 cells (which express ASGR1) (Homo sapiens, UniProt P07306)
T1 construct: endogenous in cells; host or cells: HepG2
T1 sequence (P07306 1-291): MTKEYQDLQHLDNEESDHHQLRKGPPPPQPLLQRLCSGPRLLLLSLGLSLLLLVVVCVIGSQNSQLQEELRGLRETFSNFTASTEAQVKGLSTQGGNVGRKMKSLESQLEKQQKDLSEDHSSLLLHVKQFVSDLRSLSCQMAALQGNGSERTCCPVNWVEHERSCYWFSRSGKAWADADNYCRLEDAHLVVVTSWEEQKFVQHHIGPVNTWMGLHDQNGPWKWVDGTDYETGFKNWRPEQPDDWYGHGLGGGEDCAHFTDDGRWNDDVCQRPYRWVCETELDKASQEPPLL


Molecular target: T1, HepG2 cells (which express ASGR1)
Assay: Guava HepG2 cell binding screen of humanized anti-ASGR1 clones
Design: unit not given here
Conditions: humanized G2D clones (Table 5); two numbers per cell, not explained
Protocol: Hybridomas producing monoclonal antibodies (mAbs) specific for human ASGR1 were prepared from Balb/C mice immunized with ASGR1-AviHis at a service provider using their propriety protocol. Antibody heavy and light chain sequences were obtained, amplified, and cloned. Clone supernatants containing the expressed mAbs were screened for binding to a human ASGR1-IgG1Fc fusion protein, and those with a positive signal as measured by enzyme linked immunosorbent assay (ELISA) were screened for cell binding on HepG2 cells (which express ASGR1).

Row | Molecule | Guava HepG2 Screen
1 | hzG2D-5: humanized G2D clone; "G2D VL region ... of clones 1-16, 19-21, 26-29, 31, and 33 ... grafted into the human germline sequence VKI-L1 with JK4" (antibody, V domains shown, Synthetic sequence hzG2.8D VH T28S, A93T, R94S, V109L; Synthetic sequence hzG2D VLa) VH: QVQLVQSGAEVKKPGASVKVSCKASGYSFTGYYMHWVRQAPGQRLEWMGRINPNNGATNYNQNFKDRVTITRDTSASTAYMELSSLRSEDTAVYYCTSVNFYYWGQGTTLTVSS VL: DIQMTQSPSSLSASVGDRVTITCKASQVINSYLSWFQQKPGKAPKSLIYRANTLVDGVPSRFSGSGSGTDFTLTISSLQPEDFATYYCLQYAEFPYTFGGGTKVEIK | 91/55
2 | hzG2D-9: humanized G2D clone; "G2D VL region ... of clones 1-16, 19-21, 26-29, 31, and 33 ... grafted into the human germline sequence VKI-L1 with JK4" (antibody, V domains shown, Synthetic sequence hzG2.40D VH R66K, V67A, A93T, R94S, V109L; Synthetic sequence hzG2D VLa) VH: QVQLVQSGAEVKKPGASVKVSCKASGYTFTGYYMHWVRQAPGQRLEWMGRINPNNGATNYNQNFKDKATITRDTSASTAYMELSSLRSEDTAVYYCTSVNFYYWGQGTTLTVSS VL: DIQMTQSPSSLSASVGDRVTITCKASQVINSYLSWFQQKPGKAPKSLIYRANTLVDGVPSRFSGSGSGTDFTLTISSLQPEDFATYYCLQYAEFPYTFGGGTKVEIK | 155/117
3 | hzG2D-6: humanized G2D clone; "G2D VL region ... of clones 1-16, 19-21, 26-29, 31, and 33 ... grafted into the human germline sequence VKI-L1 with JK4" (antibody, V domains shown, Synthetic sequence hzG2.43D VH T68S, I69L, R71V, V109L; Synthetic sequence hzG2D VLa) VH: QVQLVQSGAEVKKPGASVKVSCKASGYTFTGYYMHWVRQAPGQRLEWMGRINPNNGATNYNQNFKDRVSLTVDTSASTAYMELSSLRSEDTAVYYCARVNFYYWGQGTTLTVSS VL: DIQMTQSPSSLSASVGDRVTITCKASQVINSYLSWFQQKPGKAPKSLIYRANTLVDGVPSRFSGSGSGTDFTLTISSLQPEDFATYYCLQYAEFPYTFGGGTKVEIK | 39/23
4 | hzG2D-7: humanized G2D clone; "G2D VL region ... of clones 1-16, 19-21, 26-29, 31, and 33 ... grafted into the human germline sequence VKI-L1 with JK4" (antibody, V domains shown, Synthetic sequence hzG2.2D VH T28S, R66K, V67A, V109L; Synthetic sequence hzG2D VLa) VH: QVQLVQSGAEVKKPGASVKVSCKASGYSFTGYYMHWVRQAPGQRLEWMGRINPNNGATNYNQNFKDKATITRDTSASTAYMELSSLRSEDTAVYYCARVNFYYWGQGTTLTVSS VL: DIQMTQSPSSLSASVGDRVTITCKASQVINSYLSWFQQKPGKAPKSLIYRANTLVDGVPSRFSGSGSGTDFTLTISSLQPEDFATYYCLQYAEFPYTFGGGTKVEIK | 46/22
5 | hzG2D-8: humanized G2D clone; "G2D VL region ... of clones 1-16, 19-21, 26-29, 31, and 33 ... grafted into the human germline sequence VKI-L1 with JK4" (antibody, V domains shown, Synthetic sequence hzG2.6D VH T28S, T68S, I69L, R71V, V109L; Synthetic sequence hzG2D VLa) VH: QVQLVQSGAEVKKPGASVKVSCKASGYSFTGYYMHWVRQAPGQRLEWMGRINPNNGATNYNQNFKDRVSLTVDTSASTAYMELSSLRSEDTAVYYCARVNFYYWGQGTTLTVSS VL: DIQMTQSPSSLSASVGDRVTITCKASQVINSYLSWFQQKPGKAPKSLIYRANTLVDGVPSRFSGSGSGTDFTLTISSLQPEDFATYYCLQYAEFPYTFGGGTKVEIK | 31/21

Further lines, results first:

Row | Guava HepG2 Screen | Molecule
6 | 158/113 | hzG2D-12: humanized G2D clone; "G2D VL region ... of clones 1-16, 19-21, 26-29, 31, and 33 ... grafted into the human germline sequence VKI-L1 with JK4" (antibody, V domains shown, Synthetic sequence hzG2.3D VH T28S, R66K, V67A, A93T, R94S, V109L; Synthetic sequence hzG2D VLa) VH: QVQLVQSGAEVKKPGASVKVSCKASGYSFTGYYMHWVRQAPGQRLEWMGRINPNNGATNYNQNFKDKATITRDTSASTAYMELSSLRSEDTAVYYCTSVNFYYWGQGTTLTVSS VL: DIQMTQSPSSLSASVGDRVTITCKASQVINSYLSWFQQKPGKAPKSLIYRANTLVDGVPSRFSGSGSGTDFTLTISSLQPEDFATYYCLQYAEFPYTFGGGTKVEIK
7 | 37/16 | hzG2D-14: humanized G2D clone; "G2D VL region ... of clones 1-16, 19-21, 26-29, 31, and 33 ... grafted into the human germline sequence VKI-L1 with JK4" (antibody, V domains shown, Synthetic sequence hzG2.4D VH T28S, R66K, V67A, T68S, I69L, R71V, V109L; Synthetic sequence hzG2D VLa) VH: QVQLVQSGAEVKKPGASVKVSCKASGYSFTGYYMHWVRQAPGQRLEWMGRINPNNGATNYNQNFKDKASLTVDTSASTAYMELSSLRSEDTAVYYCARVNFYYWGQGTTLTVSS VL: DIQMTQSPSSLSASVGDRVTITCKASQVINSYLSWFQQKPGKAPKSLIYRANTLVDGVPSRFSGSGSGTDFTLTISSLQPEDFATYYCLQYAEFPYTFGGGTKVEIK
8 | 172/119 | hzG2D-15: humanized G2D clone; "G2D VL region ... of clones 1-16, 19-21, 26-29, 31, and 33 ... grafted into the human germline sequence VKI-L1 with JK4" (antibody, V domains shown, Synthetic sequence hzG2.42D VH R66K, V67A, T68S, I69L, R71V, A93T, R94S, V109L; Synthetic sequence hzG2D VLa) VH: QVQLVQSGAEVKKPGASVKVSCKASGYTFTGYYMHWVRQAPGQRLEWMGRINPNNGATNYNQNFKDKASLTVDTSASTAYMELSSLRSEDTAVYYCTSVNFYYWGQGTTLTVSS VL: DIQMTQSPSSLSASVGDRVTITCKASQVINSYLSWFQQKPGKAPKSLIYRANTLVDGVPSRFSGSGSGTDFTLTISSLQPEDFATYYCLQYAEFPYTFGGGTKVEIK
9 | 149/63 | hzG2D-10: humanized G2D clone; "G2D VL region ... of clones 1-16, 19-21, 26-29, 31, and 33 ... grafted into the human germline sequence VKI-L1 with JK4" (antibody, V domains shown, Synthetic sequence hzG2.44D VH T68S, I69L, R71V, A93T, R94S, V109L; Synthetic sequence hzG2D VLa) VH: QVQLVQSGAEVKKPGASVKVSCKASGYTFTGYYMHWVRQAPGQRLEWMGRINPNNGATNYNQNFKDRVSLTVDTSASTAYMELSSLRSEDTAVYYCTSVNFYYWGQGTTLTVSS VL: DIQMTQSPSSLSASVGDRVTITCKASQVINSYLSWFQQKPGKAPKSLIYRANTLVDGVPSRFSGSGSGTDFTLTISSLQPEDFATYYCLQYAEFPYTFGGGTKVEIK
10 | 165/108 | hzG2D-16: humanized G2D clone; "G2D VL region ... of clones 1-16, 19-21, 26-29, 31, and 33 ... grafted into the human germline sequence VKI-L1 with JK4" (antibody, V domains shown, Synthetic sequence hzG2.5D VH T28S, R66K, V67A, T68S, I69L, R71V, A93T, R94S, V109L; Synthetic sequence hzG2D VLa) VH: QVQLVQSGAEVKKPGASVKVSCKASGYSFTGYYMHWVRQAPGQRLEWMGRINPNNGATNYNQNFKDKASLTVDTSASTAYMELSSLRSEDTAVYYCTSVNFYYWGQGTTLTVSS VL: DIQMTQSPSSLSASVGDRVTITCKASQVINSYLSWFQQKPGKAPKSLIYRANTLVDGVPSRFSGSGSGTDFTLTISSLQPEDFATYYCLQYAEFPYTFGGGTKVEIK
11 | 140/83 | hzG2D-13: humanized G2D clone; "G2D VL region ... of clones 1-16, 19-21, 26-29, 31, and 33 ... grafted into the human germline sequence VKI-L1 with JK4" (antibody, V domains shown, Synthetic sequence hzG2.7D VH T28S, T68S, I69L, R71V, A93T, R94S, V109L; Synthetic sequence hzG2D VLa) VH: QVQLVQSGAEVKKPGASVKVSCKASGYSFTGYYMHWVRQAPGQRLEWMGRINPNNGATNYNQNFKDRVSLTVDTSASTAYMELSSLRSEDTAVYYCTSVNFYYWGQGTTLTVSS VL: DIQMTQSPSSLSASVGDRVTITCKASQVINSYLSWFQQKPGKAPKSLIYRANTLVDGVPSRFSGSGSGTDFTLTISSLQPEDFATYYCLQYAEFPYTFGGGTKVEIK
